# Paper doi:10.1101/2024.07.11.603087, “Rational Design of a Flavoenzyme for Aerobic Nicotine Catabolism” (bioRxiv, 2024)
# B1: PnaoΔN30 (residues 31 to 497) (enzyme, Pseudomonas putida S16, UniProt F8G0P1 31-496, looked up)
# chain: IASQLLTLSAPAEAAVKTNVGPSRAGVGYDVIVIGGGFAGVTAAREASRSGLKTLILEGRSRLGGRTFTSKLQNQKVELGGTWVHWTQPNVWTEIMHYGLEVEETVGLANPETVIWVTEDNVKRAPAAEAFEIFGSACNEYYKEARNIYPRPFEPFFERKKLQHVDGLSAADYLEKLPLTREQKDMMDSWLSGNGHNYPETIAYSEIMRWFALSNFNMPTMFDSIARYKIKTGTHSLLEAIMADGNSEVKLSTPVTKVNQDKDKVTVTTEDGVFTASAVIVAVPINTLHDIEYSPKLSAAKVDMGSQRHAGAGVKGYIRVKQNVGNVMTYAPARNKLTPFTSVFTDHVDESGTLLIAFSADPKLIDINDIKAVEKALQPLLPGVEVTASYGYDWNLDPFSKGTWCTYRPNQTTRYLTELQKREGRLFFAGSDMANGWRGFIDGAIENGREVGHQVATYLKRENDNA
# notes: Pnao, flavin-dependent pseudooxynicotine oxidase of Pseudomonas putida S16, N-terminal truncation of 30 residues, residues 31 to 497; Cloned into pET-28a between NcoI and XhoI, which would likely give a C-terminal His6 tag (surmised); also called pseudooxynicotine amine oxidase; source: E. coli BL21(DE3), purified (Ni2+-NTA, size-exclusion chromatography)
# Target: the molecule itself
# Experiment: SEC; Superdex 200 Increase 10/300 GL; molecular weight from elution, consistent with two molecules
protein,measurement,value
B1,stoichiometry N,2
